# Assay results from US20170340698A1, “CYCLIC PEPTIDE SPECIFICALLY BINDING TO APOPTOTIC CELLS AND USE THEREOF” (KYUNGPOOK NATIONAL UNIVERSITY INDUSTRY-ACADEMIC COOPERATION …, priority 2014, published 2017).
# B1: annexin V: existing apoptotic probe used as control, Alexa488-conjugated (Life technologies) (protein, UniProt P08758 2-320, looked up)
# Annexin A5: AQVLRGTVTDFPGFDERADAETLRKAMKGLGTDEESILTLLTSRSNAQRQEISAAFKTLFGRDLLDDLKSELTGKFEKLIVALMKPSRLYDAYELKHALKGAGTNEKVLTEIIASRTPEELRAIKQVYEEEYGSSLEDDVVGDTSGYYQRMLVVLLQANRDPDAGIDEAQVEQDAQALFQAGELKWGTDEEKFITIFGTRSVSHLRKVFDKYMTISGFQIEETIDRETSGNLEQLLLAVVKSIRSIPAYLAETLYYAMKGAGTDDHTLIRVMVSRSEIDLFNIRKEFRKNFATSLYSMIKGDTSGDYKKALLLLCGEDD
# modifications: Alexa488 conjugate
# Tested on: SNU16 human stomach cancer cell line
# Assay: In vitro binding of FITC-conjugated peptides to apoptotic cells, flow cytometry
# Format: cell-based
# Settings: fluorescent probe
# Procedure: SNU16 human stomach cancer cell line was purchased from KCLB (Seoul, Korea). […] After treatment, cells were incubated with fluorescein isothiocyanate (FITC)-conjugated linear or cyclic form of ApoPep-1 peptide at 4[…] for 1 hour. As control, cells were stained with Alexa488-conjugated annexin V (Life technologies, Carlsbad, Calif.) for 15 min at room temperature. Percentages of fluorescent (the liner or cyclic form of ApoPep-1 peptide-bound or annexin V-bound fluorescence) cells were calculated by measurement and analysis methods through the selection of the fluorescent signals (the liner or cyclic form of ApoPep-1 peptide-bound or annexin V-bound fluorescence), which were shown in the respective cells when cells in an emulsion state pass through a constant fluorescence detection zone, using flow cytometry (Fluorescence-activated cell sorting (FACS), FACS calibur, BD Biosciences, MA, USA).
# Cyclic form of ApoPep-1 (cyclo[CQRPPRC] peptide of the present invention) was prepared by adding cysteine residue at the carboxy terminal of linear form of ApoPep-1 (CQRPPR) and performing cyclization through disulfide bonding.
molecule,measurement,setting,value
B1,percentage of apoptotic cells detected,SNU16 cells treated with cetuximab alone (200 ug/ml) for 24 hours,~40%
same,percentage of apoptotic cells detected,SNU16 cells treated with cisplatin (300 ng/ml) plus cetuximab in combination for 24 hours,~45%
same,percentage of apoptotic cells detected,SNU16 cells treated with cisplatin alone (300 ng/ml) for 24 hours,approximately 43%
